Each block holds one binder with its values, some of them ahead of it. Non-standard residues stand in square brackets, D forms with d. No end group written: not given here. pT = C[C@@H](OP(=O)(O)O)[C@H](N)C(=O)O
Biological target: T1, SA2–SCC1 complex (SA2 amino acid residues 80–1060 with SCC1 amino acid residues 281–420) (UniProt Q8N3U4 80-1060; O60216 281-420)
T1 construct: SA2 (STAG2), cohesin subunit, residues 80-1060; SCC1 (RAD21, Mcd1), cohesin subunit, residues 281-420; also called cohesin subcomplex SA2–SCC1; CES
T1 sequence (looked up) 1: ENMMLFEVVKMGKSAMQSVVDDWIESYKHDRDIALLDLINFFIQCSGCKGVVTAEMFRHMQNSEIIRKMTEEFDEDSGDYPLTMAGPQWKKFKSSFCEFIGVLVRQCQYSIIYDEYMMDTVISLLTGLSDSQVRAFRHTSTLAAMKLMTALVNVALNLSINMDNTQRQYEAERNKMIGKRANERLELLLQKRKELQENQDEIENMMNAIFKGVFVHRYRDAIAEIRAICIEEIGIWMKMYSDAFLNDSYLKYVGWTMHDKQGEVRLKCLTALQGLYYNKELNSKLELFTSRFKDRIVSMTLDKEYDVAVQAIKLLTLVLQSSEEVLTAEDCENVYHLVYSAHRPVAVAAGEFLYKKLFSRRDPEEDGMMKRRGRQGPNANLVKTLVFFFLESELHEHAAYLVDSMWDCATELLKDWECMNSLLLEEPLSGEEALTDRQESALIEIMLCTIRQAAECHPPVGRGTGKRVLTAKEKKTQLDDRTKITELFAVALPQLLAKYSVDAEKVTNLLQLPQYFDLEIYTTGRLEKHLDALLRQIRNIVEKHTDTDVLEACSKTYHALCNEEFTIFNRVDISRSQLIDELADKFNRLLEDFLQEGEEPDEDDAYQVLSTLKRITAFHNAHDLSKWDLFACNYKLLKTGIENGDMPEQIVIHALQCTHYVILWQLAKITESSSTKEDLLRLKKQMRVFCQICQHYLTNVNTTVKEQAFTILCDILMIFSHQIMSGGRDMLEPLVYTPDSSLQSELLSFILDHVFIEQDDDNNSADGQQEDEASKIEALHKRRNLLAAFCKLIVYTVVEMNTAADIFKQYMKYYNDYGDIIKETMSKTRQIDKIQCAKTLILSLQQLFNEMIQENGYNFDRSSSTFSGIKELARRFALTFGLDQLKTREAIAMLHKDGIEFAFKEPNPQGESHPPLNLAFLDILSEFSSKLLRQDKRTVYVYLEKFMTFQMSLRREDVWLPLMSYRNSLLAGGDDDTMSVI
T1 sequence (looked up) 2: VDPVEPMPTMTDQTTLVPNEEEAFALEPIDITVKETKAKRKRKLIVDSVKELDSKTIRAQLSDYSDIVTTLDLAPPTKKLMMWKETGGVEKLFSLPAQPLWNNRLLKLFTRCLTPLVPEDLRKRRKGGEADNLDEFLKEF
Assay: ITC; performed as described previously (ref. 21); data analysed with Origin 7.0; SGO1 peptides with SA2–SCC1
Details: both partners purified

- Kd: 13.5 ± 1.4 µM
B1: SGO1 peptide spanning amino acids 331–341 (SNDAYNFNLEE) (peptide)
peptide: SNDAYNFNLEE
notes: Shugoshin 1 (SGO1), human, residues 331-341 with the YxF motif; also called SGO1 331–341; nonphosphorylated SGO1 peptide

- Kd: 2.3 ± 0.4 µM
B2: SGO1 peptide spanning amino acids 331–349 containing phosphorylated pT346 (SNDAYNFNLEEGVHLpTPFR) (peptide)
peptide: SNDAYNFNLEEGVHL[pT]PFR
notes: Shugoshin 1 (SGO1), human, residues 331-349, T346 phosphorylated; also called T346-phosphorylated SGO1 fragment; SGO1 331–349 pT346

— publication PMC10279526, “Structural basis of centromeric cohesion protection” (Nature Structural & Molecular Biology, 2023)
